These results are taken from patent US20240376151A1, “STAPLED PEPTIDES AND METHODS THEREOF” (FOG PHARMACEUTICALS, INC., priority 2022, published 2024).

Numbered stars: 1 amine (or outer) side, 2 acyl side, 3 side chain; on linkers, the order of the positions; unused ones are H or OH. Bridge positions count the residues as written; N and C are the ends. Ends that are not written are not given here. Phenylene(1,4-NHCOCH2)2 = O=C(C[*:1])Nc1ccc(NC(=O)C[*:2])cc1

For one experiment, the target named is T1, WWP1 (Homo sapiens, UniProt Q9H0M0).
T1 construct: GST-TEV (N, cleaved yes); made in house; host or cells: Escherichia coli BL21 (DE3)
In words: Naive Library Presenter Screening (phage, NGS), WWP1 (construct not given). It is filed as binding. Conditions: for interaction data at Target Concentration 10: WWP1 target concentration 10 nM; for interaction data at Target Concentration 30: WWP1 target concentration 30 nM; for interaction data at Target Concentration 100: WWP1 target concentration 100 nM; for interaction data at Target Concentration 300: WWP1 target concentration 300 nM; for interaction data at Target Concentration 1000: WWP1 target concentration 1000 nM.

The next experiment deals with T2, WWP2^HECT (Homo sapiens, UniProt O00308).
T2 construct: GST-TEV (N, cleaved yes); made in house; host or cells: Escherichia coli BL21 (DE3)
In words: Naive Library Presenter Screening (phage, NGS), WWP2^HECT. Type of experiment: binding. Conditions: for interaction data at Target Concentration 10: WWP2 target concentration 10 nM; for interaction data at Target Concentration 30: WWP2 target concentration 30 nM; for interaction data at Target Concentration 100: WWP2 target concentration 100 nM; for interaction data at Target Concentration 300: WWP2 target concentration 300 nM; for interaction data at Target Concentration 1000: WWP2 target concentration 1000 nM.

T2 sequence (O00308 492-865): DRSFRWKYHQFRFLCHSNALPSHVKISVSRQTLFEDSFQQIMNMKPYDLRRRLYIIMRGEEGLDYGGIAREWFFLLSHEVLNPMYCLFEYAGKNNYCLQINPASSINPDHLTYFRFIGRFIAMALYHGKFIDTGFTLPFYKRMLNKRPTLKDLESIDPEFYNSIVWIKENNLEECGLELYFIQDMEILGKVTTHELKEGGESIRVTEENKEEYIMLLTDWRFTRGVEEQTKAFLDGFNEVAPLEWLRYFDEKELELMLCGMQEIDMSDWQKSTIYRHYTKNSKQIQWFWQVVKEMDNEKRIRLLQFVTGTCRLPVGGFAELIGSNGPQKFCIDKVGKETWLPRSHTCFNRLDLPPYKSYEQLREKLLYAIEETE

Take “DPAATLCNQAANVCALL (linker 7-14 via Phenylene(1,4-NHCOCH2)2)”: in the experiment with WWP1, the “interaction data at Target Concentration 10” value is on record as 0, the “interaction data at Target Concentration 30” value was found to be 0, the “interaction data at Target Concentration 100” value turned out to be 132 and the “interaction data at Target Concentration 300” value was found to be 145. For the same sequence, the “interaction data at Target Concentration 1000” value with WWP1 (second column) stood at 197.
“DPAFIQCTHAANMCHSS (linker 7-14 via Phenylene(1,4-NHCOCH2)2)”: in the experiment with WWP1, the “interaction data at Target Concentration 10” value worked out at 0, the “interaction data at Target Concentration 30” value amounted to 3 and the “interaction data at Target Concentration 100” value worked out at 43. For the same sequence, in the experiment with WWP1 (first column), the “interaction data at Target Concentration 1000” value is 336. Also, the “interaction data at Target Concentration 1000” value with WWP1 (second column) was determined as 562.
As to “DPAMRRCHQAAWVCEVL (linker 7-14 via Phenylene(1,4-NHCOCH2)2)”, in the experiment with WWP1, the “interaction data at Target Concentration 10” value worked out at 0, the “interaction data at Target Concentration 30” value is 1, the “interaction data at Target Concentration 100” value is listed as 98 and the “interaction data at Target Concentration 300” value was 182. Besides, the “interaction data at Target Concentration 1000” value with WWP1 (first column) is given as 183. Further, the “interaction data at Target Concentration 1000” value with WWP1 (second column) is 140.
As for “DPATHVCTTAA VMCHQT (DPATHVCTTAAVMCHQT; not fully specified; cysteine pairing not given here)”, in the experiment with WWP1, the “interaction data at Target Concentration 10” value is given as 0, the “interaction data at Target Concentration 30” value turned out to be 0, the “interaction data at Target Concentration 100” value is recorded as 6 and the “interaction data at Target Concentration 300” value amounted to 327. In the experiment with WWP1 (first column), the “interaction data at Target Concentration 1000” value was determined as 275. In the experiment with WWP1 (second column), the “interaction data at Target Concentration 1000” value came out at 365.
As for “DPALQTCMDAAQVCRLL (linker 7-14 via Phenylene(1,4-NHCOCH2)2)”, in the experiment with WWP1, the “interaction data at Target Concentration 10” value is recorded as 0, the “interaction data at Target Concentration 30” value came to 0, the “interaction data at Target Concentration 100” value is listed as 107 and the “interaction data at Target Concentration 300” value came out at 163. Further, in the experiment with WWP1 (second column), the “interaction data at Target Concentration 1000” value was 197.
In the case of “DPALASCQQAAWVCEVL (linker 7-14 via Phenylene(1,4-NHCOCH2)2)”, in the experiment with WWP1, the “interaction data at Target Concentration 10” value was determined as 0, the “interaction data at Target Concentration 30” value is 43, the “interaction data at Target Concentration 100” value was found to be 173 and the “interaction data at Target Concentration 300” value is 291. The “interaction data at Target Concentration 1000” value with WWP1 (second column) was 309.
As for “DPAIQRCSTAAQVCRYL (linker 7-14 via Phenylene(1,4-NHCOCH2)2)”, in the experiment with WWP1, the “interaction data at Target Concentration 10” value is 0, the “interaction data at Target Concentration 30” value was found to be 6, the “interaction data at Target Concentration 100” value is reported as 202 and the “interaction data at Target Concentration 300” value is 236. In addition, the “interaction data at Target Concentration 1000” value in the experiment with WWP1 (second column) was found to be 197.
For “DPAVRDCSDAAIVCELV (linker 7-14 via Phenylene(1,4-NHCOCH2)2)”, in that order: 5, 5, 147, 91 and 197.
As to “DPAHTACNQAARVCHTL (linker 7-14 via Phenylene(1,4-NHCOCH2)2)”, in the experiment with WWP1, the “interaction data at Target Concentration 10” value was 1, the “interaction data at Target Concentration 30” value is 4, the “interaction data at Target Concentration 100” value worked out at 104 and the “interaction data at Target Concentration 300” value is listed as 200. Further, the “interaction data at Target Concentration 1000” value in the experiment with WWP1 (second column) is 253.
Turning to “DPARWACTEAAHVCDTL (linker 7-14 via Phenylene(1,4-NHCOCH2)2)”, in the experiment with WWP1, the “interaction data at Target Concentration 10” value came to 0, the “interaction data at Target Concentration 30” value was found to be 2 and the “interaction data at Target Concentration 300” value amounted to 182. Also, the “interaction data at Target Concentration 1000” value with WWP1 (first column) came to 183. In addition, in the experiment with WWP1 (second column), the “interaction data at Target Concentration 1000” value amounted to 281.
“DPALLHCMAAAQTCSFF (linker 7-14 via Phenylene(1,4-NHCOCH2)2; not fully specified (C-terminus))”: in the experiment with WWP2^HECT, the “interaction data at Target Concentration 10” value was determined as 0, the “interaction data at Target Concentration 30” value is recorded as 47, the “interaction data at Target Concentration 100” value was 26 and the “interaction data at Target Concentration 300” value is given as 37. Besides, the “interaction data at Target Concentration 1000” value with WWP2^HECT (first column) was 59. In addition, the “interaction data at Target Concentration 1000” value with WWP2^HECT (second column) was 123.
Take “DPALWHCLAAAETCAMF (linker 7-14 via Phenylene(1,4-NHCOCH2)2; not fully specified (C-terminus))”: in the experiment with WWP2^HECT, the “interaction data at Target Concentration 10” value came to 4, the “interaction data at Target Concentration 30” value was found to be 38, the “interaction data at Target Concentration 100” value was found to be 24 and the “interaction data at Target Concentration 300” value is 49. The “interaction data at Target Concentration 1000” value in the experiment with WWP2^HECT (first column) is 47. Also, the “interaction data at Target Concentration 1000” value in the experiment with WWP2^HECT (second column) was 76.
For “DPAIWDCLYAATNCYIN (linker 7-14 via Phenylene(1,4-NHCOCH2)2; not fully specified (C-terminus))”, in the experiment with WWP2^HECT, the “interaction data at Target Concentration 10” value was found to be 0, the “interaction data at Target Concentration 30” value is on record as 0, the “interaction data at Target Concentration 100” value is recorded as 0 and the “interaction data at Target Concentration 300” value stood at 8. Besides, the “interaction data at Target Concentration 1000” value with WWP2^HECT (first column) is given as 12. The “interaction data at Target Concentration 1000” value with WWP2^HECT (second column) is given as 20.
For the sequence “DPANWDCQQAAWLCIIQ (DPANWDCQQAAWLCIIQ-NH2; linker 7-14 via Phenylene(1,4-NHCOCH2)2; N-terminus assumed; SMILES CC[C@H](C)[C@H](NC(=O)[C@@H]1CSCC(=O)Nc2ccc(cc2)NC(=O)CSC[C@H](NC(=O)[C@H](CC(=O)O)NC(=O)[C@H](Cc2c[nH]c3ccccc23)NC(=O)[C@H](CC(N)=O)NC(=O)[C@H](C)NC(=O)[C@@H]2CCCN2C(=O)[C@@H](N)CC(=O)O)C(=O)N[C@@H](CCC(N)=O)C(=O)N[C@@H](CCC(N)=O)C(=O)N[C@@H](C)C(=O)N[C@@H](C)C(=O)N[C@@H](Cc2c[nH]c3ccccc23)C(=O)N[C@@H](CC(C)C)C(=O)N1)C(=O)N[C@H](C(=O)N[C@@H](CCC(N)=O)C(N)=O)[C@@H](C)CC)”, in the experiment with WWP2^HECT, the “interaction data at Target Concentration 10” value worked out at 0, the “interaction data at Target Concentration 30” value stood at 0, the “interaction data at Target Concentration 100” value is 0 and the “interaction data at Target Concentration 300” value came to 8. Besides, the “interaction data at Target Concentration 1000” value in the experiment with WWP2^HECT (first column) is given as 7. For the same sequence, in the experiment with WWP2^HECT (second column), the “interaction data at Target Concentration 1000” value was determined as 27.
Turning to “DPATYYCEAAAETCRFF (linker 7-14 via Phenylene(1,4-NHCOCH2)2 (inferred); not fully specified (C-terminus))”, in the experiment with WWP2^HECT, the “interaction data at Target Concentration 10” value was 37, the “interaction data at Target Concentration 30” value stood at 57, the “interaction data at Target Concentration 100” value came out at 70 and the “interaction data at Target Concentration 300” value is recorded as 94. The “interaction data at Target Concentration 1000” value with WWP2^HECT (first column) is 78. The “interaction data at Target Concentration 1000” value with WWP2^HECT (second column) turned out to be 123.
Regarding “DPAAWDCRYAALACYIH (linker 7-14 via Phenylene(1,4-NHCOCH2)2 (inferred))”, in the experiment with WWP2^HECT, the “interaction data at Target Concentration 10” value amounted to 0, the “interaction data at Target Concentration 100” value came to 2 and the “interaction data at Target Concentration 300” value was found to be 11. In addition, in the experiment with WWP2^HECT (first column), the “interaction data at Target Concentration 1000” value is listed as 66. The “interaction data at Target Concentration 1000” value with WWP2^HECT (second column) was found to be 34.
